We go through two substances from paper PMC9057628.

Experiment [1] has as its target recombinant full-length human TTRV122I with N-terminal AviTag (human) (UniProt P02766). Kind of experiment: SEC; time series: TTR in 1M urea pH 7.6 at room temperature on a rotating platform for 1 hour to 7 days; oligomers between 200 and 600 kDa; also with 100 uM H2O2 or 5 mM DTT. On the technique in general: SEC sorts molecules by how far they enter the pores of the column.

In experiment [2] the target is recombinant full-length human TTRWT with N-terminal AviTag (human) (UniProt P02766). Described as above.

As to “recombinant full-length human TTRV122I with N-terminal AviTag (from UniProt P02766 21-147) (natural protein)”, the stoichiometry N (protein subunits) in experiment [1] came to 15. In the case of “recombinant full-length human TTRWT with N-terminal AviTag (from UniProt P02766 21-147) (natural protein)”, in experiment [2], the stoichiometry N (protein subunits) is 10.
